# Reference: patent publication US20030232013A1, “Therapeutic and diagnostic targeting of cancers cells with tumor homing peptides” (priority 2002, published 2003)
# Read-outs that look alike come from different tables or passages of the source. Bridge positions count the residues as written; N and C are the ends. Peptide text beside a SMILES is read from it. * marks the point of attachment. DOTA = O=C(O)CN1CCN(CC(=O)O)CCN(CC(=O)*)CCN(CC(=O)O)CC1
# Key:
# [1] = In vivo biodistribution in T47D tumor bearing SCID mice; settings: female, ICR SCID, mouse, iv, total radioactivity, n = 4; for tissue uptake at 1 h / dose excreted at 1 h: 1 hour post-injection; for tissue uptake at 24 h / dose excreted at 24 h: 24 hours post-injection
# Source text: (§1) In vivo iodistribution studies. Four- to 5-week old female ICR SCID ([…]) outbred mice were obtained from Taconic (Germantown, N.Y.). The mice were housed five animals per cage in sterile micro isolator cages in a temperature- and humidity-controlled room with a 12-hour light/12-hour dark schedule. The animals were fed autoclaved rodent chow (Ralston Purina Company, St. Louis, Mo.) and water ad libitum. Animals were housed one week prior to inoculation of tumor cells and anesthetized for injections with isoflurane (Baxter Healthcare Corp., Deerfield, Ill.) at a rate of 2.5% with 0.4L oxygen through a non-rebreathing anesthesia vaporizer.
# (§2) Human breast cancer MB231 and T47D cells were injected on the bilateral subcutaneous (s.c.) flank with ˜5×10^6 cells in a suspension of 100 μl normal sterile saline per injection site. MB231 and T47D cells were allowed to grow in vivo two to three weeks post inoculation developing tumors ranging in sizes from 0.02-1.30 grams. The biodistribution and uptake of ^111In-DOTA-Phe^19-STh or ^111In-DOTA-6-Ahx-Phe^19-STh in tumor bearing SCID mice was studied. The mice (average weight, 25 g) were injected with aliquots (50-100 μl) of the radiolabeled peptide solution (55-75 kBq) in each animal via the tail vein. Tissues, organs and tumors were excised from the animals sacrificed at 1 hr, 4 hrs and 24 hrs p.i. For blocking studies, an access of non-radioactive 6-Ahx-Phe^19-STh (100 μg) was also injected along with the radiolabeled peptide solution. The radioactivity was measured in a NaI counter and the percent-injected dose per organ and the percent-injected dose per gram tissue were calculated (Tables 5 and 6). Animal studies were conducted in accordance with the highest standards of care as outlined in the NIH guide for Care and Use of Laboratory Animals and the Policy and Procedures for Animal Research at the Harry S. Truman Memorial VA Hospital and according to approved protocols.
# [2] = system: T47D tumor bearing SCID mice; assay: as above; settings: 4 hours post-injection, n = 4
# Source text: as §1, §2
# [3] = T47D tumor, T47D tumor, read-out: biodistribution, Tumor
# [4] = blood, read-out: biodistribution, Blood
# [5] = heart, read-out: biodistribution, Heart
# [6] = kidney, read-out: biodistribution, Kidney
# [7] = large intestine, read-out: biodistribution, Large Intestine
# [8] = liver, read-out: biodistribution, Liver
# [9] = lung, read-out: biodistribution, Lung
# [10] = muscle, read-out: biodistribution, Muscle
# [11] = pancreas, read-out: biodistribution, Pancreas
# [12] = small intestine, read-out: biodistribution, Small Intestine
# [13] = spleen, read-out: biodistribution, Spleen
# [14] = stomach, read-out: biodistribution, Stomach
# [15] = urine, read-out: biodistribution, Urine (Avg % ID)
smiles,measurement,setting,value
"CC(C)C[C@@H]1NC(=O)[C@H](CCC(=O)O)NC(=O)[C@@H]2CSSC[C@@H]3NC(=O)[C@H](C)NC(=O)[C@@H]4CCCN4C(=O)[C@H](CC(N)=O)NC(=O)[C@H](CSSC[C@H](NC(=O)[C@H](Cc4ccc(O)cc4)NC(=O)[C@H](CC(N)=O)NC(=O)[C@H](CO)NC(=O)[C@H](CO)NC(=O)[C@H](CC(N)=O)NC(=O)CN4CCN(CC(=O)O)CCN(CC(=O)O)CCN(CC(=O)O)CC4)C(=O)N2)NC(=O)[C@H](CSSC[C@@H](C(=O)N[C@@H](Cc2ccccc2)C(=O)O)NC(=O)CNC(=O)[C@H]([C@@H](C)O)NC3=O)NC1=O [^111In-DOTA-Phe^19-STh, metal not drawn] ({DOTA}-NSSNYCCELCCNPACTGCF-OH; disulfide 6-11, 7-15, 10-18)",tissue uptake at 1 h,"[1]; T47D tumor, T47D tumor, Blocking (100 μg non-radioactive 6-Ahx-Phe^19-STh co-injected), read-out: biodistribution, Tumor",0.43 ± 0.2 %ID/g
same,tissue uptake at 1 h,[1]; [3],0.67 ± 0.23 %ID/g
same,tissue uptake at 4 h,"[1]; T47D tumor, T47D tumor, 4 hours post-injection, read-out: biodistribution, Tumor",0.17 ± 0.16 %ID/g
same,tissue uptake at 24 h,[1]; [3],0.14 ± 0.12 %ID/g
same,tissue uptake at 1 h,"[1]; blood, Blocking (100 μg non-radioactive 6-Ahx-Phe^19-STh co-injected), read-out: biodistribution, Blood",0.57 ± 0.19 %ID/g
same,tissue uptake at 1 h,[1]; [4],0.82 ± 0.34 %ID/g
same,tissue uptake at 4 h,"[1]; blood, 4 hours post-injection, read-out: biodistribution, Blood",0.01 ± 0.01 %ID/g
same,tissue uptake at 24 h,[1]; [4],0.02 ± 0.01 %ID/g
same,dose excreted at 24 h,"[1]; faeces, read-out: biodistribution, Feces (Avg % ID)",1.4 ± 0.7%
same,tissue uptake at 1 h,"[1]; heart, Blocking (100 μg non-radioactive 6-Ahx-Phe^19-STh co-injected), read-out: biodistribution, Heart",0.13 ± 0.1 %ID/g
same,tissue uptake at 1 h,[1]; [5],0.15 ± 0.11 %ID/g
same,tissue uptake at 24 h,[1]; [5],0.08 ± 0.08 %ID/g
same,tissue uptake at 1 h,"[1]; kidney, Blocking (100 μg non-radioactive 6-Ahx-Phe^19-STh co-injected), read-out: biodistribution, Kidney",5.88 ± 1.47 %ID/g
same,tissue uptake at 1 h,[1]; [6],4.7 ± 1.4 %ID/g
same,tissue uptake at 4 h,"[1]; kidney, 4 hours post-injection, read-out: biodistribution, Kidney",2.02 ± 0.35 %ID/g
same,tissue uptake at 24 h,[1]; [6],1.04 ± 0.33 %ID/g
same,tissue uptake at 1 h,"[1]; large intestine, Blocking (100 μg non-radioactive 6-Ahx-Phe^19-STh co-injected), read-out: biodistribution, Large Intestine",0.17 ± 0.06 %ID/g
same,tissue uptake at 1 h,[1]; [7],0.57 ± 0.21 %ID/g
same,tissue uptake at 4 h,"[1]; large intestine, 4 hours post-injection, read-out: biodistribution, Large Intestine",1.74 ± 1.04 %ID/g
same,tissue uptake at 24 h,[1]; [7],0.1 ± 0.03 %ID/g
same,tissue uptake at 1 h,"[1]; liver, Blocking (100 μg non-radioactive 6-Ahx-Phe^19-STh co-injected), read-out: biodistribution, Liver",0.19 ± 0.04 %ID/g
same,tissue uptake at 1 h,[1]; [8],0.26 ± 0.12 %ID/g
same,tissue uptake at 4 h,"[1]; liver, 4 hours post-injection, read-out: biodistribution, Liver",0.06 ± 0.01 %ID/g
same,tissue uptake at 24 h,[1]; [8],0.03 ± 0.01 %ID/g
same,tissue uptake at 1 h,"[1]; lung, Blocking (100 μg non-radioactive 6-Ahx-Phe^19-STh co-injected), read-out: biodistribution, Lung",0.45 ± 0.16 %ID/g
same,tissue uptake at 1 h,[1]; [9],0.56 ± 0.19 %ID/g
same,tissue uptake at 4 h,"[1]; lung, 4 hours post-injection, read-out: biodistribution, Lung",0.09 ± 0.06 %ID/g
same,tissue uptake at 24 h,[1]; [9],0.06 ± 0.03 %ID/g
same,tissue uptake at 1 h,"[1]; muscle, Blocking (100 μg non-radioactive 6-Ahx-Phe^19-STh co-injected), read-out: biodistribution, Muscle",0.18 ± 0.08 %ID/g
same,tissue uptake at 1 h,[1]; [10],0.19 ± 0.08 %ID/g
same,tissue uptake at 4 h,"[1]; muscle, 4 hours post-injection, read-out: biodistribution, Muscle",0.06 ± 0.04 %ID/g
same,tissue uptake at 24 h,[1]; [10],0.04 ± 0.03 %ID/g
same,tissue uptake at 1 h,"[1]; pancreas, Blocking (100 μg non-radioactive 6-Ahx-Phe^19-STh co-injected), read-out: biodistribution, Pancreas",0.16 ± 0.07 %ID/g
same,tissue uptake at 1 h,[1]; [11],0.21 ± 0.09 %ID/g
same,tissue uptake at 4 h,"[1]; pancreas, 4 hours post-injection, read-out: biodistribution, Pancreas",0.04 ± 0.05 %ID/g
same,tissue uptake at 24 h,[1]; [11],0.02 ± 0.03 %ID/g
same,tissue uptake at 1 h,"[1]; small intestine, Blocking (100 μg non-radioactive 6-Ahx-Phe^19-STh co-injected), read-out: biodistribution, Small Intestine",0.25 ± 0.1 %ID/g
same,tissue uptake at 1 h,[1]; [12],1.37 ± 0.55 %ID/g
same,tissue uptake at 4 h,"[1]; small intestine, 4 hours post-injection, read-out: biodistribution, Small Intestine",0.44 ± 0.07 %ID/g
same,tissue uptake at 24 h,[1]; [12],0.09 ± 0.02 %ID/g
same,tissue uptake at 1 h,"[1]; spleen, Blocking (100 μg non-radioactive 6-Ahx-Phe^19-STh co-injected), read-out: biodistribution, Spleen",0.12 ± 0.07 %ID/g
same,tissue uptake at 1 h,[1]; [13],0.19 ± 0.16 %ID/g
same,tissue uptake at 4 h,"[1]; spleen, 4 hours post-injection, read-out: biodistribution, Spleen",0.13 ± 0.15 %ID/g
same,tissue uptake at 24 h,[1]; [13],0.12 ± 0.08 %ID/g
same,tissue uptake at 1 h,"[1]; stomach, Blocking (100 μg non-radioactive 6-Ahx-Phe^19-STh co-injected), read-out: biodistribution, Stomach",0.61 ± 0.64 %ID/g
same,tissue uptake at 1 h,[1]; [14],0.53 ± 0.47 %ID/g
same,tissue uptake at 4 h,"[1]; stomach, 4 hours post-injection, read-out: biodistribution, Stomach",0.17 ± 0.06 %ID/g
same,tissue uptake at 24 h,[1]; [14],0.02 ± 0.01 %ID/g
same,dose excreted at 1 h,"[1]; urine, Blocking (100 μg non-radioactive 6-Ahx-Phe^19-STh co-injected), read-out: biodistribution, Urine (Avg % ID)",93.1 ± 1.5%
same,dose excreted at 1 h,[1]; [15],86.4 ± 5%
same,dose excreted at 4 h,"[1]; urine, 4 hours post-injection, read-out: biodistribution, Urine (Avg % ID)",96.1 ± 1%
same,dose excreted at 24 h,[1]; [15],97.8 ± 0.7%
same,"biodistribution, Heart",[2],0.00 ± 0.00 % ID/gm
